Measurements as given in patent US20230035659A1, “Compositions and Methods for TTR Gene Editing and Treating ATTR Amyloidosis Comprising a Corticosteroid or Use Thereof” (Intellia Therapeutics, Inc., priority 2019, published 2023).
Strand notation (5' to 3'): a small letter for the sugar, then the base; units joined by * are phosphorothioate-linked, units joined directly phosphodiester-linked; [ ] holds rarer units or linkages, { } end groups; capitals alone tell only the bases. m = 2'-O-methyl; r = 2'-OH (RNA)

Tested on: TTR
Experiment: TTR editing in primary cyno hepatocytes treated with LNP formulated Spy Cas9 mRNA (SEQ ID NO: 2) and sgRNAs, 12.5 ng mRNA
Type: cell-based, cynomolgus monkey
Conditions: LNP formulated Spy Cas9 mRNA (SEQ ID NO: 2) and cyno matched sgRNA, lysed 72 hours post treatment
Procedure: Primary liver hepatocytes. Primary human liver hepatocytes (PHH) and primary cynomolgus liver hepatocytes (PCH) (Gibco) were cultured per the manufacturer's protocol (Invitrogen, protocol 11.28.2012). In brief, the cells were thawed and resuspended in hepatocyte thawing medium with supplements (Gibco, Cat. CM7000) followed by centrifugation at 100 g for 10 minutes for human and 80 g for 4 minutes for cyno. The supernatant was discarded and the pelleted cells resuspended in hepatocyte plating medium plus supplement pack (Invitrogen, Cat. A1217601 and CM3000). Cells were counted and plated on Bio-coat collagen I coated 96-well plates (ThermoFisher, Cat. 877272) at a density of 33,000 cells/well for human or 60,000 cells/well for cyno (or 65,000 cells/well when assaying effects on TTR protein, described further below). Plated cells were allowed to settle and adhere for 6 or 24 hours in a tissue culture incubator at 37° C. and 5% CO2 atmosphere. After incubation cells were checked for monolayer formation and media was replaced with hepatocyte culture medium with serum-free supplement pack (Invitrogen, Cat. A1217601 and CM4000).
In general, the lipid nanoparticle components were dissolved in 100% ethanol with the lipid component of various molar ratios. The RNA cargos were dissolved in 25 mM citrate, 100 mM NaCl, pH 5.0, resulting in a concentration of RNA cargo of approximately 0.45 mg/mL. The LNPs were formulated with a lipid amine to RNA phosphate (N:P) molar ratio of about 4.5 or about 6, with the ratio of mRNA to gRNA at 1:1 by weight.
The LNPs were formed by microfluidic mixing of the lipid and RNA solutions using a Precision Nanosystems NanoAssemblr™ Benchtop Instrument, according to the manufacturer's protocol. A 2:1 ratio of aqueous to organic solvent was maintained during mixing using differential flow rates. […]
Additional PCR was performed per the manufacturer's protocols (Illumina) to add chemistry for sequencing. […] The reads were aligned to a reference genome (e.g., the human reference genome (hg38), the cynomologus reference genome (mf5), the rat reference genome (rn6), or the mouse reference genome (mm10)) after eliminating those having low quality scores. The resulting files containing the reads were mapped to the reference genome (BAM files), where reads that overlapped the target region of interest were selected and the number of wild type reads versus the number of reads which contain an insertion, substitution, or deletion was calculated.
The editing percentage (e.g., the “editing efficiency” or “percent editing” or “indel frequency”) is defined as the total number of sequence reads with insertions/deletions (“indels”) or substitutions over the total number of sequence reads, including wild type. […]

B1: G000502: TTR Cyno specific sgRNA modified sequence, SEQ ID NO: 114; guide sequence of CR000689; cross homologous between mouse and cyno (nucleic acid)
guide: mA*mC*mA*rCrArArArUrArCrCrArGrUrCrCrArGrCrGrGrUrUrUrUrArGrAmGmCmUmAmGmAmAmAmUmAmGmCrArArGrUrUrArArArArUrArArGrGrCrUrArGrUrCrCrGrUrUrArUrCrAmAmCmUmUmGmAmAmAmAmAmGmUmGmGmCmAmCmCmGmAmGmUmCmGmGmUmGmCmU*mU*mU*mU
  12.5 ng mRNA, 3.9 nM sgRNA, Avg % Edit: 80.70%
